System: cucurbitadienol
Test: 11-OH cucurbitadienol production from cucurbitadienol by CYP450s expressed in S. cerevisiae, LCMS
Format: cell-based
Conditions: S. cerevisiae strain producing cucurbitadienol and expressing SgCPR; LCMS peak area of product vs. internal reference; hits over vector only control
Source text: DNA was obtained through gene synthesis either through Genescript, IDT, or Genewiz. For some of the cucurbitadienol synthases, cDNA or genomic DNA was obtained through 10-60 day old seedlings followed by PCR amplification using specific and degenerate primers. DNA was cloned through standard molecular biology techniques or through yeast gap repair cloning (Joska et al., 2014) into one of the following overexpression vectors: pESC-Ura, pESC-His, or pESC-LEU. Gene expression was regulated by one of the following promoters; Gall, Gal10, Tef1, or GDS. Yeast transformation was performed using Zymo Yeast Transformation Kit II. Yeast strains were grown in standard media (YPD or SC) containing the appropriate selection with 2% glucose or 2% galactose for induction of heterologous genes. Yeast strains were grown in shake flask or 96 well plates at 30° ° C., 140-250 rpm. When indicated, lanosterol synthase inhibitor, Ro 48-8071 (Cayman Chemicals) was added (50 ug/ml). Yeast samples producing mogrol precursors, mogrol and mogrosides were processed through one of the following: • Cucurbitadienol and 11-OH Cucurbitadienol: Samples cell pellets were lysed (Yeast Buster) followed by ethyl acetate extraction, drying, and resuspension in methanol. • ·Mogrol and Mogrosides: Samples cell pellets were lysed in 50% ETOH, incubated at 80° C. for 30 min, filtered, dried and resuspended in MeOH for LCMS screening.
For analyzing 11-OH cucurbitadienol, the LCMS method included the use of C8 2.1×100 mm column, gradient 60 to 90% B for 6 minutes at flow rate of 0.55 ml/min. For the enzyme screening, the LCMS method used was a Waters Acquity UPLC Protein BEH C4, 2.1×100 mm, 1.7 μm column and a gradient of 40% to 80% over 5 minutes, 95% B from 5.1 to 5.6 minutes with a flow rate of 0.55 ml/min, and ESI source positive mode single ion monitoring of 425.4.
Additional CYP450s were expressed in S. cerevisiae strain producing cucurbitadienol and expressing SgCPR. DNA and protein sequences for the CYP450 enzymes are shown in SEQ IDs 871-890 and 1024-1049 (see Table 1).

| Molecule | Peak Area 11-OH CCB |
| --- | --- |
| SEQ ID NO. 1034/1035: CYP450 enzyme (DNA/protein SEQ ID NO) producing 11-OH cucurbitadienol (protein, Cucurbita pepo) MEIINGVFLILPLGFVLVFEVLKRLNGLYYAVKLGKKWGELPPGDLSWPLLGSTLSFLKSFTVGPPESFIRIFTTRYGKVDMYKTHMFGRASILVCKPEICRQVLIDETKFVPSYPACMKRLFGRKSLIRVSKAEHRKLRRMTMAPISSHAALEIYIEHTEHTVISGLEEWSSVEKPLKLLTEIKELTFKIIWNIFMGSTSIDYTTKEMEALYDDVALGLFCFPINFPGFNFHKSLKARKRLYEILLSIVNEKRLMKKSKGESWEAKDMMDLMTEVEDEDGEGMDNETITDLIFGKLFAGHETSAFTTMWAIIFLTDHPHIFQRAKEEQEDIIRRRPSTQKGINLVEFKQMKFLSQVIDETLRLSSIAFATFREATTDININGKLIPKGWKVILWHRGLYMDEELHPSPQDFNPSRWDDFIGNPGAFTPFGLGVRLCPGRDLAKLEISIFLHHFLLNYKIERYNPQCQLTYLPLPHPKDKCLARVLKAAGQCV | 0.3854 |
| SEQ ID NO. 1038/1039: CYP450 enzyme (DNA/protein SEQ ID NO) producing 11-OH cucurbitadienol (protein, listed as Siraitia grosvenorii) MLSFLGFAAFFFCFFLIHSLFKLFSAARRKLPLPPGSMGWPYMGETLQLYSQDPNVFFASKKKRYGPIFKSHILGYPCVMLSSPEAVKFVLVTKAHLFKPTFPASKERMLGKNAIFFHQGDYHAKLRRLVLRTFMPEAIRIMVPSIESIAKNTVQSWEGQLINTFQEMKMFAFEVSLLSIFGKDEALYFEDLKRCYYILEKGYNSMPINLPGTLFHKAMKARKELAHILNKILSTRREMKPDHNDLLGSFMGQKEGLTDEQIADNVIGLIFAARDTTASVLTWILKYLGENPSVLQAVTAEQEAIMKQKRSAHDNLTWGDTKNMPITSRVIQETLRVASVLSFTFREAVEDVEFDGYLIPKGWKVLPLFRNIHHSPEIFPQPDKFDPSRFEVAQKPNTYMPFGSGTHSCPGNELAKLEMLVLLHHLTTKYRWSVVGAQEGIQYGPFALPHNGLPIRISLKK | 0.3528 |
| SEQ ID NO. 1032/1033: CYP450 enzyme (DNA/protein SEQ ID NO) producing 11-OH cucurbitadienol (protein, listed as Cucurbita maxima) MWTIVVGLATLAVAYYIHWINKWKDSKFNGVLPPGTMGLPLIGETLQLSRPSDSLDVHPFIKKKVKRYGSIFKTCLAGRPVVVSTDAEFNNYIMLQEGRAVEMWYLDTLSKFFGLDTEWLKALGFIHKYIRSITLNHFGAESLRERFLPRIEESAKETLCYWATQPSVEVKDSAAVMVFRTSMVKMVSKDSSKLLTGGLTKKFTGLLGGFLTLPINVPGTTYNKCMKDMKEIQKKLREILEGRLASGAGSDEDFLGQAVKDKGSQKFISDDFIIQLLFSISFASFESISTTLTLILNYLADHPDVVKELEAEHEAIRNARADPDGPITWEEYKSMTFTLHVIFETLRLGSVTPALLRKTTKELQINGYTIPEGWTVMLVTASRHRDPAVYKDPHTFNPWRWKELDSITIQKNFMPFGGGLRHCAGAEYSKVYLCTFLHILFTKYRWTKLKGGKVARAHILSFEDGLHMKFTPKE | 0.4459 |
| SEQ ID NO. 1036/1037: CYP450 enzyme (DNA/protein SEQ ID NO) producing 11-OH cucurbitadienol (protein, listed as Lagenaria siceraria) MELIINNWLLILSCVGFALGLGVLKRLNNLYYAIKLGKKWDEVPPGDLSWPLLGSTLSFIKYFTLGPPHNFIAQFSNRYGKVDMYKTHIFGRASIIVCKPEICRQVLTDETKFAPGYPTTMTSLFGRRSLHRVSKVEHRKLRRLTTTPISSHAALELYIDHIEHTVINGLEEWSSMEKPLELLTVIKELTFKIIWNIFMGSTPMGSIAIREMEALYNDISLGFFCLPINFPGFYFHKSLKARKRLHEILQCIVNEKRLVKKSKGETWEAKDMMDLMIEVRDEDGEGMDDETIVDLIFGKLFAGQETSAFTTMWAILFLTNNPHVFQKAKVIDETLRVSSITFATFREAMTDVKINGKIIPKGWKVILWLRELNMDEKLHTSPQEFNPSRWDNFIGNPGAFTPFGLGVRMCPGRDLAKLEISIFLHYFLLNYKVEQLNPQCQLDYLPIPHPKDKCLARVLKVA | 0.3833 |
